Test results reported in the supplement of paper PMC9170038.

Legend:
[1] = tested on: MS2 coat protein; test: apparent KD of MS2 coat protein; higher = weaker reporter binding; conditions: Eterna round: R107
Protocol: (§1)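 RNA-MaP round R107: designed RNA switches with theophylline, tryptophan, arginine or FMN aptamers are transcribed on-chip within common flanks. They are titrated with SNAP-549-labelled MS2 coat protein in RNA-MaP buffer (100 mM Tris pH 7.5, 80 mM KCl, 4 mM MgCl2), without ligand or with the indicated ligand. Median apparent KD per design.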

[2] = tested on: K4 kissing-loop RNA reporter; test: apparent KD of K4 kissing-loop reporter; higher = weaker reporter binding; conditions: Eterna round: R107;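 note: bound reporter read as fluorescence of individual clusters on recovered sequencing chips by microscopy, with normalized cluster intensities fitted with a binding model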
Protocol: as §1, with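 “a labelled K4 kissing-loop RNA reporter” for “SNAP-549-labelled MS2 coat protein”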

[3] = input ligand: theophylline 20 uM
[4] = input ligand: theophylline 2 mM
[5] = input ligand: tryptophan 2.4 mM

Sequence	apparent KD of MS2 coat protein ([1]; input ligand: arginine 13.2 mM) [nM]	apparent KD of MS2 coat protein ([1]; input ligand: none) [nM]	apparent KD of MS2 coat protein [1, 3] [nM]	apparent KD of MS2 coat protein [1, 4] [nM]	apparent KD of MS2 coat protein [1, 5] [nM]	apparent KD of K4 kissing-loop reporter ([2]; input ligand: FMN 200 uM) [nM]	apparent KD of K4 kissing-loop reporter ([2]; input ligand: arginine 13.2 mM) [nM]	apparent KD of K4 kissing-loop reporter ([2]; input ligand: none) [nM]	apparent KD of K4 kissing-loop reporter [2, 3] [nM]	apparent KD of K4 kissing-loop reporter [2, 5] [nM]
AAAACCUCACCUGAGGAACACCCAGGUGAUACCAGCCUGGAAACAGGCCCUUGGCAGCACCAGGUCAUCAAAGAUGACCAAAUAA [TheoAX 25 #OpenEnded #AlternativeMS2]	17.5	22.7	40.7	595	21.3	–	–	–	–	–
AAAAGACAUGAGGAUCACCCAUGUAGAGAUACCAGAUGCAUGGACAUCCCUUGGCAGCUCGUCACUUUCUAUAUUUUCCAGACGC [theeternabot_sameState_MS2_Theo_A_37]	31	–	59.1	–	59.1	–	–	–	–	–
AAAAGAGGUGGAAGGAGCGGGAGACAUGAGGAUCACCCAUGUGAAGUAACGAAAGGUACAGCCCAGGUAGGUCGCCAUGUCGAAA [qxqamullin]	20.6	31.7	73.5	40.4	32.8	–	–	–	–	–
AAAAGUAGGUCCAAUAAAACUACAUGUGAAGGAGCGCGCGAAAGCGCAGGUAGGUCGCACAUGAGGAUCACCCAUGUCCUACAAA [MAT - Exclusion Arginine A - Mod of Eli - D6]	39.8	47.3	77.2	65.7	39.8	–	–	–	–	–
AAAAUAAAAGGUGCAAAAUCCUAAUGUGAAGGAGCGCACGAAAGUGCAGGUAGGUCGCACAUGAGGAUCACCCAUGUAGCACCAA [ArgEX 4 #SwitchBubble]	54.8	146	115	211	147	–	–	–	–	–
AAAAUCCUACUUGAGGAUCACCCAGGUGAAGGAGCGCCCGAAAGGGCAGGUAGGUCGCACCUGAGGAUCACCCUGGUAACCUAAA [ArgEX 9 #DoubleMS2 #OpenEnded]	140	164	171	211	178	–	–	–	–	–
AAACGUUGCUGCGAUACCAGACAUGAGGAUCACCCAUGUACCAAGAAAACGUACAUAAAUGUCCCUUGGCAGCGCAGCAACGAAA [MAT - Exclusion Theophlline B - Mod of Eli - D28]	141	–	511	–	635	–	–	–	–	–
AAAUAAACCUCGGCCGCCACUCGCCAUGAGGAUCACCCAUGUAACAUGAGGAUCACCCAUGUACAGAGGACCGGGAGGUCCUAGU [Same State Tryptophan B GF 13]	48.3	–	68.9	87.1	–	–	–	–	–	–
AACAACAAGGGAAGGAGCGCGAAUAAUAAACAUGAGGAUCACCCAUGUAUCAUGGGCUUAACGCAGGUAGGUCGCCCACAAACAA [Exclusion Arginine B GF1]	34	37.9	47.2	49.4	40.6	–	–	–	–	–
AACACACCAAAUGAUACCAGCUACAACAUGAUACAAAACCACAUGAGGAUCACCCAUGUAAGCCCUUGGCAGCAUACUACUGUAA [theeternabot_exclusion_MS2_Theo_B_40]	16.9	–	24.2	–	18.7	–	–	–	–	–
AACAUACAAUAAUAGGUGGAUAUAAGGCGGCGAGGACCGGUACGGCCGCCACUCGCGUACAUGAGGAUCACCCAUGUCUGAAACU [Same State - Tryptophan A (Freestyle 3)]	16.8	–	26.8	27	–	–	–	–	–	–
AACAUGAGGAUCACCCAUGUCCUCGUGUACCGAGGACCGGUACGGCCGCCACUCGGUUCUCGCGAGGAUGGUCAAAGACUAUCCA [Omei Trp A SS B v4]	202	–	643	1010	–	–	–	–	–	–
AACGAGUGGCGGCCAUUGGGUGAUCCUCUACGAGGACCGGUACGGCCGCCACUCGAUAACAUGAGGAUCACCCAUGUGCCGAUAA [|T'-M'-Trp-Ms2|_Design10b]	42.3	–	164	240	–	–	–	–	–	–
AAGAACAUGAGGAUCACCCAUGUGAUCGUUCGAGGACCGGUACGGCCGCCACUCGGACCUGUGUCCAGGCACGGGCCGACGCGAC [theeternabot_sameState_MS2_Trp_A_21]	74.8	–	118	106	–	–	–	–	–	–
AAGACAUGAGGAUCACCCAUGUCGUCUACACGAGGACCGGUACGGCCGCCACUCGUUUGCCAAUGAGCGCAUGCGGCCUGGGUAU [Exclusion Tryp A GF3]	13.2	–	17.9	16.3	–	–	–	–	–	–
AAGACUGGACAUAAGUCCAGUCAACCUGAAGGAGCGGGUGGGUGCCCAGGUAGGUCGCGGGAACAUGAGGAUCACCCAUGUAUAA [ArgAS 5 #BothOrNeither #OpenEnded]	17.4	25.8	16.9	31.9	24.6	–	–	–	–	–
AAGGUAUCACAGACAUGGGUGUACUGUGAUACCAGCUAGGAAACUAGCCCUUGGCAGCACAUGAGGAUCACCCAUGUAAGAAUAA [(T)'-(M)'-(T1)-(T2)-(M1)-(M2)_Design4_2/19/17]	34	–	94.9	–	53.8	–	–	–	–	–

Sequence	apparent KD of MS2 coat protein ([1]; input ligand: arginine 13.2 mM) [nM]	apparent KD of MS2 coat protein ([1]; input ligand: none) [nM]	apparent KD of MS2 coat protein [1, 3] [nM]	apparent KD of MS2 coat protein [1, 4] [nM]	apparent KD of MS2 coat protein [1, 5] [nM]	apparent KD of K4 kissing-loop reporter ([2]; input ligand: FMN 200 uM) [nM]	apparent KD of K4 kissing-loop reporter ([2]; input ligand: arginine 13.2 mM) [nM]	apparent KD of K4 kissing-loop reporter ([2]; input ligand: none) [nM]	apparent KD of K4 kissing-loop reporter [2, 3] [nM]	apparent KD of K4 kissing-loop reporter [2, 5] [nM]
AAGGUGAUCCGUGAUACCAGCUCAACAUGAGGAUCACCCAUGUAAGCCUGGAAACAGGCGAGCCCUUGGCAGCACGGUUGCCAAG [(M)'-(Theo1)-(Ms2)-(Theo2)-(M'')-(T2)'_Design1]	38.6	165	138	25.4	163	–	–	–	–	–
AAGUGGCACGGAAGGAGCGAGUUUACCUAGAUAACAUGAGGAUCACCCAUGUAUAAUGGGACUCAGGUAGGUCGCCGCUGUCACU [#30 Same State - Arginine B]	34.9	41.5	58.3	38.6	41.5	–	–	–	–	–
AAUAACAUGAGGAUCACCCAUGUAAAAGAUACCAGAGUGAUGAUCCUCCCUUGGCAGCUUAAAACGCUAUUGAUUACAAUAGCGA [Mat - Same State Theophlline A - Mod of Eli - D4]	38.3	–	99	–	45.3	–	–	–	–	–
AAUAAGCAGCUGCAAGGUGAUCCUGCAGAUACCAGCUAGGAAACUAGCCCUUGGCAGCUGCAACAUGAGGAUCACCCAUGUAAUA [(T)'-(M)'-(T1)-(T2)-(M1)-(M2)_Design6]	26.2	–	61.7	–	30.7	–	–	–	–	–
AAUAAGUAUCUGCUAGGUGAUCCAGCAGAUACCAGCUAGGAAACUAGCCCUUGGCAGCUGCAACAUGAGGAUCACCCAUGUAAUA [(T)'-(M)'-(T1)-(T2)-(M1)-(M2)_Design3]	98.7	–	193	–	407	–	–	–	–	–
AAUAAUAAGGCGGCCGCCACUAAACAUGAGGAUCACCCAUGUCUCGCGGGCUUGCGUUGGGAAAGUAGGACCGGGCCAAUAAUAA [Exclusion - Tryptophan B (Freestyle 8)]	16	15.7	20.6	14.7	14.4	–	–	–	–	–
AAUAAUAAGGCGGCCGCCACUACACAUGAGGAUCACCCAUGUCUCGCGGGCUUGCGUUGGGAAAGUAGGACCGGGCCAAUAAUAA [Exclusion - Tryptophan B (Freestyle 9)]	15.3	21.5	26	27.3	15.7	–	–	–	–	–
AAUACAGCUACGGCCGCCACUUUAACUUGGUAUGGGUCCUUCACAAACAUGAGGAUCACCCAUGUAAGGACCGGGUAGCCUUGUU [theeternabot_exclusion_MS2_Trp_B_35]	21.6	–	28.4	24	–	–	–	–	–	–
AAUACCGGUCCUCGAAGCAUGGGUGAUCAACGAGGACCGGUACGGCCGCCACUCGAUAACAUGAGGAUCACCCAUGUAAUAAUAA [|T'-M'-Trp-Ms2|_Design5]	34.4	313	395	552	569	–	–	–	–	–
AAUACCGGUCCUCGAGGGUGAUCCUCAUGACGAGGACCGGUACGGCCGCCACUCGAUAACAUGAGGAUCACCCAUGUAAUCGAGU [|T'-M'-Trp-Ms2|_Design7b]	34.1	–	70.4	72.4	–	–	–	–	–	–
AAUGGGCGAGUAGAGCAUAAUUUCCACUCCCGAGGACCGGUACGGCCGCCACUCGUUCGCUCACAUGAGGAUCACCCAUGUGGUC [theeternabot_exclusion_MS2_Trp_A_17]	24.7	–	32.3	40.3	–	–	–	–	–	–
AAUGGUCGUACUGGAAUGGUGAUCCUCAAACGAGGACCGGUACGGCCGCCACUCGAUAACAUGAGGAUCACCCAUGUAAUAAUAA [|T'-M'-Trp-Ms2|_Design13b]	26	–	67.4	55.2	–	–	–	–	–	–
AAUGUAUGCCACAUGAGGAUCACCCAUGUGCGAGGACCGGUACGGCCGCCACUCGGUCGGUGGUUAAUGAAGAUAUACAAUAAUG [XTryp A #12]	10.6	–	20.9	13.5	–	–	–	–	–	–
AAUGUAUGGCACAUGAGGAUCACCCAUGUGCGAGGACCGGUACGGCCGCCACUCGGUCCUGGGAUCUUAAUACUAUACAUUAAUG [XTryp A #19]	10.3	–	15.1	13.9	–	–	–	–	–	–
AAUGUGAAGGCGGCCGCCACUGAUAAUAGACAUGAGGAUCACCCAUGUAUAAAUCCUCAAUAAGACAGGACCGGGCCAACUACGU [Exclusion Tryptophan B GF 1]	93	–	114	136	–	–	–	–	–	–
UUUUAUUAAUUCUUCUAGUGAUGUUAGAUACGAGGACCGGUACGGCCGCCACUCGCUUAUUGGUUUAUAUAUUUUAUAUUCUUUA [JR_SSTryptoA_Sub015]	–	–	–	–	–	293	319	330	400	264
UUUUUCGCGUUUGAUACCAGCAGAGUUGUUCGUGUCUGGAGCGUGAGUGAUGUUCAUGUCUGCCCUUGGCAGCAAACGGGAGAAG [KL-XTheo-B14]	–	–	–	–	–	137	113	123	97.1	134
